Measured values as given in PMC10542384.

Molecular target: RNF111 (Arkadia) (UniProt Q6ZNA4)
Experiment: proximity ligation assay (PLA)
Conditions: ARKL1 KO U2OS cells complemented with HA-ARKL1WT (n = 28), HA-ARKL1SIM* (n = 20) or vector (n = 17); antibodies against HA and RNF111; parent: est. 9.0; read off a plot

Chain of UniProt Q6ZNA4 (Q6ZNA4 whole entry): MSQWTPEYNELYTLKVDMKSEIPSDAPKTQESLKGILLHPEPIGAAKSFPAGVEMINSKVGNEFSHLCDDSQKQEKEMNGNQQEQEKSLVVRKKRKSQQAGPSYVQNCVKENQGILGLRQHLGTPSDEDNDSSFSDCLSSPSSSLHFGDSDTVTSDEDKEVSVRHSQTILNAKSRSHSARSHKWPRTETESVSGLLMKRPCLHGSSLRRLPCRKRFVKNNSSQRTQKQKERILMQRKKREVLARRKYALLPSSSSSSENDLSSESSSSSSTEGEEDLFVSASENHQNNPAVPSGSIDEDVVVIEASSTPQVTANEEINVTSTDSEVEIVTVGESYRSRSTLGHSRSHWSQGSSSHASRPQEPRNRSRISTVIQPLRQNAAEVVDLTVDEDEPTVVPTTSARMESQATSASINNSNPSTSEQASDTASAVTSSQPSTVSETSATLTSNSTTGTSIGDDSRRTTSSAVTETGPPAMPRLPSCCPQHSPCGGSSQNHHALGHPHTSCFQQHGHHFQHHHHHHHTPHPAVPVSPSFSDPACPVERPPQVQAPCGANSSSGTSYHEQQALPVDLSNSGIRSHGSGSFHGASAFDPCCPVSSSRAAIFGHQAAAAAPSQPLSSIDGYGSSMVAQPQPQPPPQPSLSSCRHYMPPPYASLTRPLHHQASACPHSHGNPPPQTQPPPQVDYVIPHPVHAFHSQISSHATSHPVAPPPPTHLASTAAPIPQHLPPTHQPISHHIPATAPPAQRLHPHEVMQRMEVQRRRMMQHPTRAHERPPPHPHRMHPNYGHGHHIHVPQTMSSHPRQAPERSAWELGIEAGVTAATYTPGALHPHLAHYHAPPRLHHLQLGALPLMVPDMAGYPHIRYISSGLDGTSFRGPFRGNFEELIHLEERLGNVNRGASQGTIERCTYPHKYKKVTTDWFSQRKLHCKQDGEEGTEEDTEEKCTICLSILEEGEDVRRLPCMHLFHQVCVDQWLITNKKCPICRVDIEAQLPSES

- response (PLA foci per cell): 1
Substance: HA-ARKL1 wild type (from UniProt Q96B23) SIM*
